Consider one molecule from US20260031189A1 (BIONTECH US, published 2026).

The target of the experiment is S353-369. Briefly: FP assay; pair as listed in Table 23.

B1: HLA-DRA*01:01/DRB4*01:03 soluble heterodimer (receptor)
MHC II alpha: not shown
MHC II beta: not shown
notes: also called HLA-DRB4*01:03/DRA*01:01
On to B1, for which the binding result is given as “binds”.
